For test [1], the target named is T1, CXCR4 chemokine receptor (UniProt P61072 1-352).
T1 chain: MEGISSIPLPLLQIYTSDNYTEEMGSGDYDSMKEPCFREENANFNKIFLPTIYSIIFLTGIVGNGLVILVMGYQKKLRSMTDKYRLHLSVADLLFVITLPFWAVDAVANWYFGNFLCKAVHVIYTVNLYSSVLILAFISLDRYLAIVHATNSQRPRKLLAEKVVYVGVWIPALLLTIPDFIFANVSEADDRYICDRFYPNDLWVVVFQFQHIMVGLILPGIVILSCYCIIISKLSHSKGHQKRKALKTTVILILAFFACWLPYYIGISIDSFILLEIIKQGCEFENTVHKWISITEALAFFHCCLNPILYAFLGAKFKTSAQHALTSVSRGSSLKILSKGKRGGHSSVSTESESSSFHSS
Nature of the test: HTRF ligand competition.

Test [2] has as its target CXCR4 chemokine receptor (Pan troglodytes (Chimpanzee), UniProt P61072 1-352). Briefly: cell-based or functional assay.

B1: CXCR4-81-6 (antibody, V domains shown)
VH: EVQLVESGGGLVQAGGSLRLSCAASGRTFSSYAMGWFRQAPGKEREFVAAISWSGGSTYYADSVKGRFTISADNAKNTVYLQMNSLKPEDTAVYYCAAARGYWRWRLGRRYDYWGQGTQVTVSS
VL: DIQMTQSPSSLSASVGDRVTITCRASQSVTTYLNWYQQKPGKAPKLLIYGSSNLQSGVPSRFSGSGSGTDFTLTISSLQPEDFATYYCQQGYSTPWTFGGGTKVEIKR
In the test with CXCR4 chemokine receptor [1], B1 displayed an IC50 of 0.687 nM. Further, the “IC50 in cAMP assay” value in the test with CXCR4 chemokine receptor [2] was found to be 0.9 nM.

For the origin of these results see patent publication US20220135690A1 (TWIST BIOSCIENCE, published 2022).
